These results are taken from patent publication US7144731B2, “SCF antibody compositions and methods of using the same” (Amgen Inc., priority 1989, dated 2006).

The subject of one data set is human bone marrow. The data set can be described thus: Human bone marrow colony assay. The format is cell-based. In a few lines:
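Ficoll-purified normal human marrow cells were cultured 14 days under low oxygen (7% O2, 10% CO2) in methylcellulose medium containing EPO (20 U/ml). Colonies counted were only those 0.2 mm or larger. Test material was recombinant human SCF (residues 1–162) from COS-1 supernatants, also combined with other factors.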

Data set [1] has as its system COS-1 cells (endogenous c-kit). The data set can be described thus: ^125I-SCF^1-164 binding to COS-1 cells transfected with V19.8 alone. The source says: To test whether SCF^1-164 is the ligand for c-kit, the cDNA for the entire murine c-kit [Qiu et al., EMBO J., 7, 1003–1011 (1988)] was amplified using PCR from the SCF^1-164 responsive mast cell line MC/9 [Nabel et al., Nature, 291, 332–334 (1981)] with primers designed from the published sequence. The ligand binding and transmembrane domains of human c-kit, encoded by amino acids 1–549 [Yarden et al., EMBO J., 6, 3341–3351 (1987)], were cloned using similar techniques from the human erythroleukemia cell line, HEL [Martin and Papayannopoulou, Science, 216, 1233–1235 (1982)]. The c-kit cDNAs were inserted into the mammalian expression vector V19.8 transfected into COS-1 cells, and membrane fractions prepared for binding assays using either rat or human ^125I-SCF^1-164 according to the methods described in Sections B and C below. […] There was no detectable specific binding of ^125I human SCF^1-164 to COS-1 cells transfected with V19.8 alone. However, COS-1 cells expressing human recombinant c-kit ligand binding plus transmembrane domains (hckit-LT1) did bind ^125I-hSCF^1-164 (Table 17). The addition of a 200 fold molar excess of unlabelled human SCF^1-164 reduced binding to background levels. […]
Two days after transfection, the COS-1 cells were scraped from the dish, washed in PBS, and frozen until use. […] The pellets were clipped off and membrane associated ^125I-SCF^1-164 was quantitated.

B1: rrSCF^1-164: recombinant rat SCF^1-164 from E. coli, also used ^125I-labelled (protein)
chain: QEICRNPVTDNVKDITKLVANLPNDYMITLNYVAGMDVLPSHCWLRDMVTHLSVSLTTLLDKFSNISEGLSNYSIIDKLGKIVDDLVACMEENAPKNVKESLKKPETRNFTPEEFFSIFNRSIDAFKDFMVASDTSDCVLSSTLGPEKDSRVSVTKPFMLPPVA
Regarding B1, the “specific activity in proliferation of human bone marrow” value in the data set with human bone marrow is “specific activity similar to that of human SCF^1-164”. Further, the “CPM Bound, ^125I-SCF + cold” value in data set [1] (1.6 nM ^125I-SCF^1-164 + 320 nM unlabelled SCF^1-164, V19.8) is 550 CPM. The “CPM Bound, ^125I-SCF” value in data set [1] (1.6 nM ^125I-SCF^1-164, plasmid V19.8) is 1,100 CPM.
